Laboratory results: paper PMC8121366, “Crystal and solution structures reveal oligomerization of individual capsid homology domains of Drosophila Arc” (PLoS ONE, 2021)
Values belong to the binder of their own block, whether it stands above or below them.

Columns and labels:
[1] = target: T1, Drosophila Arc1 N-lobe (Drosophila); assay: SEC-MALS + other: SAXS; SEC-MALS on Superdex S200 Increase 10/300 in TBS (20 mM Tris-HCl pH 7.4, 150 mM NaCl); SEC-SAXS on Superdex S200 Increase 3.2 in TBS, injected at 5 mg/ml, +10°C; settings: both partners purified
T1 chain: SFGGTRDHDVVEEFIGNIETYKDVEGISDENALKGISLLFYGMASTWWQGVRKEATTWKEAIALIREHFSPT

[2] = target: the molecule itself; assay: as above

stoichiometry N [1]: 2
B1: Drosophila Arc1 N-lobe (domain or fragment)
chain: T1 chain
modifications: limits inferred from the homologous dArc2-NL construct (6SIB, 37-109), the 8.2 kDa monomer mass and the dArc1-CL start at 123 (6SID); start uncertain by about 1 residue; dimer in solution / limits …

B2: Drosophila Arc2 C-lobe (domain or fragment)
chain: KPSYQIYMEIFETKQSYDEVIDSFICKQRALLAKLPEGRHDEETELDFIYGLMQPKYRESIPRHEVKTFRELLDRGRTVERTRH
notes: Arc2 (dArc2) of Drosophila, isolated C-lobe; monomeric mass 10 kDa; Dimer in the crystal and in solution; also called dArc2-CL; source: E. coli BL21(DE3), purified (Ni-NTA, TEV cleavage, second Ni-NTA, amylose resin, Superdex S200); not shown: His tag, N-terminal, cleaved; MBP, N-terminal, cleaved
stoichiometry N [2]: 2

B3: Drosophila Arc2 N-lobe (domain or fragment)
chain: RFSGQRDHDAVDEFINAVETYKEVEGISDKDALKGLPLLFKSIAVVWWKGVRRDAKTWSDALQLLRDHFSPT
notes: monomeric mass 8.4 kDa; Tetramer in solution (SEC-MALS, SAXS); domain-swapped dimer in the crystal; also called dArc2-NL; source: E. coli BL21(DE3), purified (Ni-NTA, TEV cleavage, second Ni-NTA, Superdex S200); not shown: His tag, N-terminal, cleaved; MBP, N-terminal, cleaved
stoichiometry N [2]: 4

B4: Drosophila Arc1 C-lobe (domain or fragment)
chain: KPAYQIYMEFFQNKQDDHDPIDTFVIQKRALLAQLPSGRHDEETELDLLFGLLNIKYRKHISRHSVHTFKDLLEQGRIIEHNNQED
notes: Arc1 (dArc1) of Drosophila, isolated C-lobe; monomeric mass 11 kDa; Dimer in the crystal and in solution; also called dArc1-CL; source: E. coli BL21(DE3), purified (Ni-NTA, TEV cleavage, second Ni-NTA, amylose resin, Superdex S200); not shown: His tag, N-terminal, cleaved; MBP, N-terminal, cleaved
stoichiometry N [2]: 2
